Data published in patent publication US20250281611A1 (BIOSCEPTRE AUST, published 2025).

T1: CD19 (UniProt P15391 20-556, limits assumed)
T1 construct: whole, on cells; also called CD19 on JeKo-1
T1 sequence (looked up): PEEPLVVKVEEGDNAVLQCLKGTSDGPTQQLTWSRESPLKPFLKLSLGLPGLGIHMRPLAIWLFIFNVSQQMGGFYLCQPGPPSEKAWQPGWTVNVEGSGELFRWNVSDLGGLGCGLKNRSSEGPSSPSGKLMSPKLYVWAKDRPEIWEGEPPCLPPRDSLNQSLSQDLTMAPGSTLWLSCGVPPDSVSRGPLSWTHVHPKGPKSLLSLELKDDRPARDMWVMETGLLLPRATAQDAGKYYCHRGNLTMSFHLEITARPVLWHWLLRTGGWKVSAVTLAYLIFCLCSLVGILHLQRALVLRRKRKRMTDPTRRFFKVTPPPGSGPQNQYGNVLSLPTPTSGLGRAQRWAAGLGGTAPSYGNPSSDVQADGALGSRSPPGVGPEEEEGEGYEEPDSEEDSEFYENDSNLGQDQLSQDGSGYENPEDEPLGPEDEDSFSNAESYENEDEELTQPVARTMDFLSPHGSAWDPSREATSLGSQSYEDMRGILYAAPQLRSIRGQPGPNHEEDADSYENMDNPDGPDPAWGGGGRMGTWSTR

B1: CD19 BRIDGE variant B13 (Fab, V domains shown)
VH: EVQLVESGGGLVKPGGSLKLSCAASGYTFTSYVMHWVRQAPGKGLEWIGYINPYNDGTKYNEKFQGRVTISSDKSISTAYMELSSLRSEDTAMYYCARGTYYYGTRVFDYWGQGTLVTVSS
VL: DIVMTQSPATLSLSPGERATLSCRSSKSLQNVNGNTYLYWFQQKPGQSPQLLIYRMSNLNSGVPDRFSGSGSGTEFTLTISSLEPEDFAVYYCMQHLEYPITFGAGTKLEIKR
B2: CD19 BRIDGE variant B14 (Fab, V domains shown)
VH: B1 VH
VL: B1 VL
B3: CD19 BRIDGE variant B19 (Fab, V domains shown)
VH: B1 VH
VL: B1 VL
B4: CD19 BRIDGE variant B20 (Fab, V domains shown)
VH: B1 VH
VL: B1 VL
B5: CD19 BRIDGE variant B25 (Fab, V domains shown)
VH: B1 VH
VL: B1 VL
B6: CD19 BRIDGE variant B12 (Fab)
heavy: EVQLVESGGGLVKPGGSLKLSCAASGYTFTSYVMHWVRQAPGKGLEWIGYINPYNDGTKYNEKFQGRVTISSDKSISTAYMELSSLRSEDTAMYYCARGTYYYGTRVFDYWGQGTLVTVSSASTKGPSVFPLAPSSKSTSGGTAALGCLVKDYFPEPVTVSWNSGALTSGVHTFPAVLQSSGLYSLSSVVTVPSSSLGTQTYICNVNHKPSNTKVDKKVEPKSCHHHHHH
light: GHNYTTRNILPGLNITSTFHKTSGSGKGGGGSEPKSSDKTHTGSDIVMTQSPATLSLSPGERATLSCRSSKSLQNVNGNTYLYWFQQKPGQSPQLLIYRMSNLNSGVPDRFSGSGSGTEFTLTISSLEPEDFAVYYCMQHLEYPITFGAGTKLEIKRTVAAPSVFIFPPSDEQLKSGTASVVCLLNNFYPREAKVQWKVDNALQSGNSQESVTEQDSKDSTYSLSSTLTLSKADYEKHKVYACEVTHQGLSSPVTKSFNRGEC
B7: CD19 BRIDGE variant B17 (Fab)
heavy: B6 heavy
light: GHNYTTRNILPGLNITSTFHKTSGSGKGSEPKSSDKTHTGGGGSDIVMTQSPATLSLSPGERATLSCRSSKSLQNVNGNTYLYWFQQKPGQSPQLLIYRMSNLNSGVPDRFSGSGSGTEFTLTISSLEPEDFAVYYCMQHLEYPITFGAGTKLEIKRTVAAPSVFIFPPSDEQLKSGTASVVCLLNNFYPREAKVQWKVDNALQSGNSQESVTEQDSKDSTYSLSSTLTLSKADYEKHKVYACEVTHQGLSSPVTKSFNRGEC
B8: CD19 BRIDGE variant B16 (Fab)
heavy: B6 heavy
light: GHNYTTRNILPGLNITSTFHKTSGSGKEPKSSDKTHTGGGGSDIVMTQSPATLSLSPGERATLSCRSSKSLQNVNGNTYLYWFQQKPGQSPQLLIYRMSNLNSGVPDRFSGSGSGTEFTLTISSLEPEDFAVYYCMQHLEYPITFGAGTKLEIKRTVAAPSVFIFPPSDEQLKSGTASVVCLLNNFYPREAKVQWKVDNALQSGNSQESVTEQDSKDSTYSLSSTLTLSKADYEKHKVYACEVTHQGLSSPVTKSFNRGEC
B9: CD19 BRIDGE variant B15 (Fab)
heavy: B6 heavy
light: GHNYTTRNILPGLNITSGGGGSEPKSSDKTHTGGGGSDIVMTQSPATLSLSPGERATLSCRSSKSLQNVNGNTYLYWFQQKPGQSPQLLIYRMSNLNSGVPDRFSGSGSGTEFTLTISSLEPEDFAVYYCMQHLEYPITFGAGTKLEIKRTVAAPSVFIFPPSDEQLKSGTASVVCLLNNFYPREAKVQWKVDNALQSGNSQESVTEQDSKDSTYSLSSTLTLSKADYEKHKVYACEVTHQGLSSPVTKSFNRGEC
B10: CD19 BRIDGE variant B18 (Fab)
heavy: B6 heavy
light: GHNYTTRNILPGLNITSTFHKTSGSGKGGGGSEPKSSDKTHTGGGGSDIVMTQSPATLSLSPGERATLSCRSSKSLQNVNGNTYLYWFQQKPGQSPQLLIYRMSNLNSGVPDRFSGSGSGTEFTLTISSLEPEDFAVYYCMQHLEYPITFGAGTKLEIKRTVAAPSVFIFPPSDEQLKSGTASVVCLLNNFYPREAKVQWKVDNALQSGNSQESVTEQDSKDSTYSLSSTLTLSKADYEKHKVYACEVTHQGLSSPVTKSFNRGEC

molecular target: T1, CD19; test: flow cytometry, JeKo-1 cells, anti-His-FITC detection, MFI over no-bridge control
Procedure: (§1) JeKo-1 cells were incubated with different CD19 BRiDGE variants at saturating concentrations. […] The MFI intensity correlates with the number of secondary bound antibodies bound to the CD19 BRiDGE variants that are only detected if they are bound to the JeKo-1 cells. MFI: median fluorescence intensity. BLitz: Bio-Layer interferometry (BLI) technology using HIS-tag identification tips. […] The higher the MFIR, the stronger the binding.

| MFIR HisTag FITC | Binder |
| --- | --- |
| 3.88 | B1 |
| 4.05 | B2 |
| 3.51 | B3 |
| 3.39 | B4 |
| 3.01 | B5 |
| 4.36 | B6 |
| 3.87 | B7 |
| 3.71 | B8 |
| 3.78 | B9 |
| 3.94 | B10 |

molecular target: T1, CD19; test: flow cytometry, JeKo-1 cells, BIL03s-AF647 detection, MFI over no-bridge control
Procedure: as §1

| MFIR BIL03 AF647 | Binder |
| --- | --- |
| 11.5 | B1 |
| 15.8 | B2 |
| 10.7 | B3 |
| 9.07 | B4 |
| 10.9 | B5 |
| 19.7 | B6 |
| 20.2 | B7 |
| 17.6 | B8 |
| 18.7 | B9 |
| 23.7 | B10 |

molecular target: T1, CD19; test: flow cytometry, JeKo-1 cells, bridge at saturating conc., BIL03s-AF647 detection
Procedure: as §1

| MFI Bil03 AF647 | Binder |
| --- | --- |
| 5.28 | B1 |
| 7.27 | B2 |
| 4.9 | B3 |
| 4.17 | B4 |
| 5 | B5 |
| 9.08 | B6 |
| 9.3 | B7 |
| 8.08 | B8 |
| 8.58 | B9 |
| 10.9 | B10 |

molecular target: T1, CD19; test: flow cytometry, JeKo-1 cells, bridge at saturating conc., anti-His-FITC detection
Procedure: as §1

| MFI HisTag FITC | Binder |
| --- | --- |
| 2.99 | B1 |
| 3.12 | B2 |
| 2.7 | B3 |
| 2.61 | B4 |
| 2.32 | B5 |
| 3.36 | B6 |
| 2.98 | B7 |
| 2.86 | B8 |
| 2.91 | B9 |
| 3.03 | B10 |

molecular target: T2, nfP2X7 CAR 1; test: flow cytometry, anti-His-FITC, MFI on EGFR+ (CAR+) over EGFR- (CAR-) T cells
T2 construct: CAR-positive cells gated by the co-expressed EGFR marker; also called nfP2X7 targeted CAR; nfP2X7 CAR on EGFR+ T cells
Procedure: (§2) nfP2X₇ CAR T cells were incubated with different BRiDGE variants at saturating concentrations. […] The MFI intensity correlates with the number of secondary bound antibodies bound to the BRiDGEs that are only detected if they are bound to the CAR T cells. EGFR was used as a marker gene to detect the CAR expression. Thus, the EGFR+ T cell population was defined as the CAR expressing cells and the EGFR− T cell population was defined as the CAR negative subset. MFI: median fluorescence intensity. EGFR: epidermal growth factor receptor. BLItz: Bio-Layer interferometry (BLI) technology using HIS-tag identification tips. HIS-tag MFI Ratio: relative index that is calculated by the testing condition MFI divided by the control MFI, which corresponds to the MFI measured on EGFR+ T cells (defined as CAR positive cells) divided by the MFI measured on the EGFR− T cells (defined as CAR negative cells). […] The higher the MFIR, the stronger the binding.

| HisTag MFI Ratio of EGFR+/EGFR- | Binder |
| --- | --- |
| 4.1 | B1 |
| 4.5 | B2 |
| 4.1 | B3 |
| 4.1 | B4 |
| 4 | B5 |
| 4.2 | B6 |
| 4.2 | B7 |
| 4.6 | B8 |
| 4.8 | B9 |
| 4.2 | B10 |

molecular target: T2, nfP2X7 CAR 1; test: flow cytometry, anti-His-FITC, MFI on EGFR+ (CAR+) T cells over background 0.44
Procedure: as §2

| HisTag MFI Ratio (background 0.44) | Binder |
| --- | --- |
| 4.8 | B1 |
| 5.5 | B2 |
| 4.9 | B3 |
| 4.8 | B4 |
| 5.2 | B5 |
| 4.8 | B6 |
| 5.1 | B7 |
| 5.3 | B8 |
| 5.9 | B9 |
| 5.1 | B10 |

molecular target: T2, nfP2X7 CAR 1; test: flow cytometry, nfP2X7 CAR 1 T cells (EGFR+ gate), anti-His-FITC detection
Procedure: as §2

| MFI HisTag FITC in EGFR+ Population | Binder |
| --- | --- |
| 2.13 | B1 |
| 2.41 | B2 |
| 2.16 | B3 |
| 2.11 | B4 |
| 2.28 | B5 |
| 2.12 | B6 |
| 2.25 | B7 |
| 2.34 | B8 |
| 2.61 | B9 |
| 2.25 | B10 |
